Experiment [1] concerns the target T1, human FcγRI expressed on CHO cells (human, UniProt P12314 16-374).
T1 construct: whole, on cells
The experiment is described as follows: FACS, CHO cells expressing FcγRI. Summed up:
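Trypsin-harvested CHO cells overexpressing each FcγR were incubated 2 h at 4 °C with IgG mutants in 3% BSA/PBS. Bound IgG was detected with PE-labeled anti-human IgG (2 h, 4 °C), then cells were fixed in 2% PFA and analysed by flow cytometry.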

In experiment [2] the target is T2, human FcγRIIA(H131) expressed on CHO cells (human, UniProt P12318 34-317).
T2 construct: whole, on cells
T2 sequence (looked up): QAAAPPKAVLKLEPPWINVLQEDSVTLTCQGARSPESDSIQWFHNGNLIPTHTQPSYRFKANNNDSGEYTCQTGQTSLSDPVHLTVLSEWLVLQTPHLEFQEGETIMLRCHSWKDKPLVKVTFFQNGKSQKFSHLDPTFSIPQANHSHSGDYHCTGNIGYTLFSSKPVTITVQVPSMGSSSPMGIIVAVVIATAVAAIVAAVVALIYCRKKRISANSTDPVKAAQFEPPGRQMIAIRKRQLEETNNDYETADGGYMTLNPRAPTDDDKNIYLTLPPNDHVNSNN
Kind of experiment: FACS, CHO cells expressing FcγRIIA(H131). On the procedure: (§1) For FACS analysis of the IgG mutants' binding to different FcγRs, FcγR overexpressing CHO cells were harvested using trypsin-EDTA and were suspended in cold staining buffer (3% BSA in PBS). Test IgG mutants, which were diluted in staining buffer, were added into the cells. The mixture was incubated 4° C. for 2 hours, and then washed twice with cold staining buffer and re-suspended in PE-labeled anti-human IgG followed by incubation at 4° C. for 2 hours. The mixture was washed twice with staining buffer and re-suspended in 2% PFA in PBS for FACS.
(In general: In flow cytometry, cells or beads pass a laser one at a time.)

The target in experiment [3] is T3, human FcγRIIA(R131) expressed on CHO cells (human, UniProt P12318 34-317).
T3 construct: whole, on cells
T3 sequence (looked up): T2 sequence (looked up) with H134R
Kind of experiment: FACS, CHO cells expressing FcγRIIA(R131). On the procedure: as §1

For experiment [4], the target named is T4, human FcRI protein (MednaBio, E1031) (human, UniProt P12314 16-288, limits assumed).
T4 construct: Bought; loaded on anti-penta-HIS biosensors; also called FcγRI
T4 sequence (P12314 16-288 limits assumed): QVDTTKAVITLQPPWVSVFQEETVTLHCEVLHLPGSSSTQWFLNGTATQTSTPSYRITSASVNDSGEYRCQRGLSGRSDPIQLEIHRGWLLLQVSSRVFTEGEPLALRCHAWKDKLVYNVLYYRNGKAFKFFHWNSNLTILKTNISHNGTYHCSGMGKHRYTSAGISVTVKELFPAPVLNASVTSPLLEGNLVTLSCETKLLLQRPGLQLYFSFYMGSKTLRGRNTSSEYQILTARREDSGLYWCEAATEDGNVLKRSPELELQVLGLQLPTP
Kind of experiment: BLI.

The target in experiment [5] is T5, human FcRIIA protein (MednaBio, E1033) (human, UniProt P12318 34-218, limits assumed).
T5 construct: Bought; also called FcγRIIA
T5 sequence (looked up): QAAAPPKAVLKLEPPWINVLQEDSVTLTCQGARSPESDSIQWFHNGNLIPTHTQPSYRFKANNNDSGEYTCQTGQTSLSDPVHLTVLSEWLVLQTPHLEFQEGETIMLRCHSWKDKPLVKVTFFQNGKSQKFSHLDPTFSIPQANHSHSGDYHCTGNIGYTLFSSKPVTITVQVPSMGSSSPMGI
Kind of experiment: BLI. On the technique in general: Biolayer interferometry detects binding as a change in optical thickness at a sensor tip.

For experiment [6], the target named is T6, human FcRIIB/C protein (MednaBio, E1034) (human, UniProt P31994 43-217, limits assumed).
T6 construct: Bought as FcRIIB/C; also called FcγRIIB; CD32B
T6 sequence (looked up): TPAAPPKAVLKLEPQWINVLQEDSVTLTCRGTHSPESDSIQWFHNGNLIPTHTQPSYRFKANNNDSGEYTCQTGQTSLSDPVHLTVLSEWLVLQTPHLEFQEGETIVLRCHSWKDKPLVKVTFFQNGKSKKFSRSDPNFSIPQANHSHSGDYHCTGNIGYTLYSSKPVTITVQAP
The experiment is described as follows: BLI.

In experiment [7] the target is T7, human FcRIIIB protein (MednaBio, E1037) (human, UniProt O75015 17-200).
T7 construct: Bought; also called FcγRIIIB; FcgRIIIB
T7 sequence (O75015 17-200 limits assumed): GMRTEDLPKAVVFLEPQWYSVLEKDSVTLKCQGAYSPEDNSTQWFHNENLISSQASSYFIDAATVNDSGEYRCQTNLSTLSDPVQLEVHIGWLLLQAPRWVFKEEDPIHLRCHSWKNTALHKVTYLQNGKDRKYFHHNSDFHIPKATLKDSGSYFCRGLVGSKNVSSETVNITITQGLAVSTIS
Kind of experiment: BLI.

Experiment [8] has as its target T8, human FcRIIIA-V158 protein (MednaBio, E1035) (human, UniProt P08637 17-208).
T8 construct: Bought; also called FcγRIIIA(V); FcgRIIIA(V)
Kind of experiment: BLI.

Experiment [9] concerns the target T9, human FcRIIIA-F158 protein (MednaBio, E1036) (human, UniProt P08637 17-208).
T9 construct: Bought; also called FcγRIIIA(F)
Kind of experiment: BLI.

Experiment [10] has as its target T10, human FcRn protein (MednaBio, E1032) (human, UniProt P55899 24-297; P61769 21-119).
T10 construct: Bought; assays at pH 6
Kind of experiment: BLI.

Experiment [11] concerns the target T2, human FcγRIIA(H131) expressed on CHO …. Kind of experiment: FACS, CHO cells expressing FcγRIIA(H131). As to the method:
FIGS. 1A-1W are charts showing binding activity of various IgG variants as indicated to different types of Fcγ receptors expressed on CHO-K1 cells at the various concentrations as indicated. The concentrations of each IgG variant, from left to right, are 0 μg/ml, 0.3 μg/ml, 1 μg/ml, 3 μg/ml, and 10 μg/ml in FIGS. 1A-1C, 1E-J, 1L-1M, 1P-1R, and 1T-1V. For FIGS. 1D, 1K, 10, 1S, and 1w the bars, from left to right, correspond to the following concentrations of IgG variant: 0.3 μg/ml, 1 μg/ml, 3 μg/ml, and 10 μg/ml.
as §1
The source holds these as a separate data set.

In experiment [12] the target is T4, human FcRI protein (MednaBio, E1031). The experiment is described as follows: BLI. In short, it runs like this: (§2)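 Binding was measured by biolayer interferometry on an Octet Red96 System, with commercial human Fc receptor proteins loaded at 20 μg/mL onto anti-penta-HIS biosensors. Sensors were dipped into an 8-point 1:3 dilution series of test IgG starting at 300 nM in PBS with 0.1% BSA and 0.02% Tween-20. Fcγ receptor assays ran at pH 7.2 and FcRn assays at pH 6. Kd, kon and koff came from global fitting to a 1:1 binding model.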
This is another data set of the same source.

Experiment [13] has as its target T5, human FcRIIA protein (MednaBio, E1033). Kind of experiment: BLI. Summed up:
as §2
This is another data set of the same source.

For experiment [14], the target named is T6, human FcRIIB/C protein (MednaBio, E1034). Kind of experiment: BLI. In short, it runs like this: as §2
This is another data set of the same source.

Experiment [15] has as its target T7, human FcRIIIB protein (MednaBio, E1037). The experiment is described as follows: BLI. In short, it runs like this:
as §2
This is another data set of the same source.

The target in experiment [16] is T8, human FcRIIIA-V158 protein (MednaBio, …). The experiment is described as follows: BLI. Summed up: as §2
This is another data set of the same source.

In experiment [17] the target is T9, human FcRIIIA-F158 protein (MednaBio, …). The experiment is described as follows: BLI. In short, it runs like this: as §2
The source holds these as a separate data set.

Experiment [18] concerns the target T10, human FcRn protein (MednaBio, E1032). Kind of experiment: BLI. Summed up: as §2
The source holds these as a separate data set.

Positions count from the first letter of the chain named. Like-named read-outs stand apart in the source and are kept apart here.

T8 sequence (P08637 17-208 F176V): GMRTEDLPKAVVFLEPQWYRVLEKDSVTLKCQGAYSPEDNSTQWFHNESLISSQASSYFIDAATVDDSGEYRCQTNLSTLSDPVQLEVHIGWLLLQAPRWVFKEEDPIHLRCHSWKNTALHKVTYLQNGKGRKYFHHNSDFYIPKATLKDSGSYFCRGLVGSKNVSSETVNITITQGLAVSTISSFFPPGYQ
T9 sequence (P08637 17-208 limits assumed): as the sequence (P08637 17-208 F176V) above, with V160F counted along it
T10 sequence (P55899 24-297 limits assumed, form in doubt, chain 1 of 2): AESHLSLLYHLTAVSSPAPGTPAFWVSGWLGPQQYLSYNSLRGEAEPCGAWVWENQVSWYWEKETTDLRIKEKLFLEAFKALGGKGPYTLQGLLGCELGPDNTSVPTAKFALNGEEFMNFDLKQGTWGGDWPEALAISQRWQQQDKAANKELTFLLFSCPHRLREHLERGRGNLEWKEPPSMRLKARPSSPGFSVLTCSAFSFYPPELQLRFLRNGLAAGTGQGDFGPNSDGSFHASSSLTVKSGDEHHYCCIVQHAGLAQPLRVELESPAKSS
T10 sequence (P61769 21-119 limits assumed, form in doubt, chain 2 of 2): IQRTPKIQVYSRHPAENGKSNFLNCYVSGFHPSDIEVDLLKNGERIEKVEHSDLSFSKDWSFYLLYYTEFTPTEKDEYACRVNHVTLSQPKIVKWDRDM
T1 sequence (P12314 16-374): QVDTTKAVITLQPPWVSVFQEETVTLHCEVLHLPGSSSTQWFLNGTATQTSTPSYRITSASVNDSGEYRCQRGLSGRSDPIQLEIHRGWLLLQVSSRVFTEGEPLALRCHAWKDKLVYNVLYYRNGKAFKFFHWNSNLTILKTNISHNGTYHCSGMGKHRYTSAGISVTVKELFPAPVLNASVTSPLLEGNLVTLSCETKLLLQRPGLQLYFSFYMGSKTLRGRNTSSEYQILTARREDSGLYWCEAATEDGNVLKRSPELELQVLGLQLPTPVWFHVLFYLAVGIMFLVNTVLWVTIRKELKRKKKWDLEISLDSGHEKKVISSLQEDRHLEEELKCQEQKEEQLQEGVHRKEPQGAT

B1: anti-CD137 IgG4 with Fc variant G4m2 (antibody)
heavy: EVQLVQSGAEVKKPGESLRISCKGSGYSFSTYWISWVRQMPGKGLEWMGKIYPGDSYTNYSPSFQGQVTISADKSISTAYLQWSSLKASDTAMYYCARGYGIFDYWGQGTLVTVSSASTKGPSVFPLAPCSRSTSESTAALGCLVKDYFPEPVTVSWNSGALTSGVHTFPAVLQSSGLYSLSSVVTVPSSSLGTKTYTCNVDHKPSNTKVDKRVESKYGPPCPPCPAPEFLGPSVFLFPPKPKDTLMISRTPEVTCVVVDVSQEDPEVQFNWYVDGVEVHNAKTKPREEQFNSTYRVVSVLTVLHQDWLNGKEYKCKVSNKGLPSSIEKTISKAKGQPREPQVYTLPPSQEEMTKNQVSLTCLVKGFYPSDIAVEWESNGQPENNYKTTPPVLDSDGSFFLYSRLTVDKSRWQEGNVFSCSVMHEALHNHYTQKSLSLSLGK
light: SYELTQPPSVSVSPGQTASITCSGDNIGDQYAHWYQQKPGQSPVLVIYQDKNRPSGIPERFSGSNSGNTATLTISGTQAMDEADYYCATYTGFGSLAVFGGGTKLTVLGQPKAAPSVTLFPPSSEELQANKATLVCLISDFYPGAVTVAWKADSSPVKAGVETTTPSKQSNNKYAASSYLSLTPEQWKSHRSYSCQVTHEGSTVEKTVAPTECS
notes: copies: 2 + 2
Usually Kd stands for the constant that tells how readily two partners part at equilibrium. A low value points to tighter binding. Broadly, the koff is the first-order rate constant of dissociation. The kon is a measure of how fast the partners come together. Higher therefore signals fast association. B1: the binding result in experiment [1] is given as “no binding (tested: 10 ug/ml)”; in [2], “no binding (tested: 10 ug/ml)”; in experiment [3] it was “no binding (tested: 10 ug/ml)”; in experiment [4], “no binding (tested: 300 nM)”; in [5], “no binding (tested: 300 nM)”; in [7] it was “no binding (tested: 300 nM)”. In addition, the binding result in experiment [8] and in [9] was “no binding (tested: 300 nM)” each time. The Kd in experiment [6] was 150 nM; in experiment [10], 9.8 nM. In addition, the koff turned out to be 0.046 s⁻¹ in experiment [6] and 0.013 s⁻¹ in experiment [10]. The figures for the kon in [6] and in [10] were 310000 M⁻¹ s⁻¹ and 1.4e+06 M⁻¹ s⁻¹, respectively.

B2: anti-CD137 IgG1 with Fc variant G1m28 (antibody)
heavy: EVQLVQSGAEVKKPGESLRISCKGSGYSFSTYWISWVRQMPGKGLEWMGKIYPGDSYTNYSPSFQGQVTISADKSISTAYLQWSSLKASDTAMYYCARGYGIFDYWGQGTLVTVSSASTKGPSVFPLAPSSKSTSGGTAALGCLVKDYFPEPVTVSWNSGALTSGVHTFPAVLQSSGLYSLSSVVTVPSSSLGTQTYICNVNHKPSNTKVDKKVEPKSCDKTHTCPPCPAPELLGPSVFLFPPKPKDTLMISRTPEVTCVVVDVSHEDPEVKFNWYVDGVEVHNAKTKPREEQYNSTYRVVSVLTVLHQDWLNGKEYKCKVSNKAFPAPIEKTISKAKGQPREPQVYTLPPSREEMTKNQVSLTCLVKGFYPSDIAVEWESNGQPENNYKTTPPVLDSDGSFFLYSKLTVDKSRWQQGNVFSCSVMHEALHNHYTQKSLSLSPGK
light: B1 light
notes: copies: 2 + 2
Turning to B2, the binding result is “no binding (tested: 10 ug/ml)” in experiment [11]; “no binding (tested: 10 ug/ml)” in experiment [3]; “no binding (tested: 300 nM)” in experiment [13]; “no binding (tested: 300 nM)” in experiment [15]; “no binding (tested: 300 nM)” in experiment [16]; “no binding (tested: 300 nM)” in experiment [17]. Moreover, the Kd stood at 240 nM in experiment [12], 410 nM in experiment [14] and 17 nM in [18]. The koff worked out at 0.16 s⁻¹ in [12], 0.2 s⁻¹ in experiment [14] and 0.011 s⁻¹ in experiment [18]. Moreover, the on-rate constant (kon) in [12] turned out to be 640000 M⁻¹ s⁻¹; in [14], 480000 M⁻¹ s⁻¹; in experiment [18] it was 650000 M⁻¹ s⁻¹.

B3: anti-CD137 IgG1 with Fc variant G1m27 (antibody)
heavy: B2 heavy with S265E, F326L
light: B1 light
notes: copies: 2 + 2
For B3, the binding result in experiment [11] is “no binding (tested: 10 ug/ml)”; in [12], “no binding (tested: 300 nM)”; in experiment [13] it was “no binding (tested: 300 nM)”; in experiment [15], “no binding (tested: 300 nM)”; in [16], “no binding (tested: 300 nM)”; in experiment [17], “no binding (tested: 300 nM)”. For the same molecule, the Kd in experiment [14] is 410 nM; in [18], 16 nM. The koff is 0.1 s⁻¹ in experiment [14] and 0.01 s⁻¹ in experiment [18]. Moreover, the kon in experiment [14] was 260000 M⁻¹ s⁻¹; in [18] it was 650000 M⁻¹ s⁻¹.
